Here are results for three substances from article PMC9680610.

Common to all, as to assay: mass photometry
Experiment [1] has as its target SARS-CoV-2 spike, wild-type (Wuhan-hu-1 strain), HexaPro stabilised (K986P, V987P, F817P, A892P, A89 (SARS-CoV-2 (Wuhan-hu-1 strain)) (UniProt P0DTC2)).
In experiment [2] the target is SARS-CoV-2 spike, Omicron (B.1.1.529 strain), 2P stabilised (SARS-CoV-2 (Omicron B.1.1.529 strain)) (UniProt P0DTC2).
Experiment [3] deals with SARS-CoV-2 spike, wild-type (Wuhan-hu-1 strain), 2P stabilised (K986P, V987P), soluble recombinant (SARS-CoV-2 (Wuhan-hu-1 strain)) (UniProt P0DTC2).
Experiment [4] deals with SARS-CoV-2 spike, Omicron (B.1.1.529 strain), HexaPro stabilised (SARS-CoV-2 (Omicron B.1.1.529 strain)) (UniProt P0DTC2).

“SARS-CoV-2 spike, wild-type (Wuhan-hu-1 strain), HexaPro stabilised (K986P, V987P, F817P, A892P, A89 (from UniProt P0DTC2 14-1208) (natural protein)”: the percent of spike counts that are trimer in experiment [1] worked out at 90%.
For orientation: stoichiometry N means a count of units in the complex or per binding partner. “angiotensin-converting enzyme-2 (ACE2) with the neck domain (from UniProt Q9BYF1 18-740) (receptor)”: the stoichiometry N in experiment [2], in experiment [1], in experiment [3] and in experiment [4] was < 3 in each case. Moreover, the figures for the percent of spike with two ACE2 bound in experiment [1] and in experiment [3] were 7% and 8%, respectively. In addition, the percent of spike with one ACE2 bound in experiment [3] was determined as 42%.
Take “angiotensin-converting enzyme-2 (ACE2) without the neck domain (from UniProt Q9BYF1 18-740) (receptor)”: the stoichiometry N in experiment [2] and in experiment [4] was < 3 throughout.
